From patent US20230192886A1 (IMMATICS BIOTECHNOLOGIES, published 2023)

Biological target: PRAME-004 peptide presented by HLA-A*02 on target cells (peptide-loaded T2 cells); PRAME-004-presenting tumor … (human)
Test: cell-based or functional assay

| EC50 of IFNγ release, T2 cells loaded with PRAME-004 from 10 µM to 10 pM (FIG. 12) [µM] | EC50 of IFNγ release, T2 cells loaded with PRAME-004 from 10 µM to 10 pM (FIG. 13) [nM] | Binder |
| --- | --- | --- |
| ~1 | – | TCR R16P1E8 (TCR, V domains shown) V domain 1: QKEVEQDPGPLSVPEGAIVSLNCTYSNSAFQYFMWYRQYSRKGPELLMYTYSSGNKEDGRFTAQVDKSSKYISLFIRDSQPSDSATYLCAMSEAAGNKLTFGGGTRVLVKP V domain 2: EAGVAQSPRYKIIEKRQSVAFWCNPISGHATLYWYQQILGQGPKLLIQFQNNGVVDDSQLPKDRFSAERLKGVDSTLKIQPAKLEDSAVYLCASSYTNQGEAFFGQGTRLTVVE |
| – | 1.83 | TCR R17P1D7 (TCR, V domains shown) V domain 1: QTVTQSQPEMSVQEAETVTLSCTYDTSESDYYLFWYKQPPSRQMILVIRQEAYKQQNATENRFSVNFQKAAKSFSLKISDSQLGDAAMYFCAYRWAQGGSEKLVFGKGTKLTVNP V domain 2: DIYQTPRYLVIGTGKKITLECSQTMGHDKMYWYQQDPGMELHLIHYSYGVNSTEKGDLSSESTVSRIRTEHFPLTLESARPSHTSQYLCATELWSSGGTGELFFGEGSRLTVLE |
